Experimental data from patent publication US20200109188A1 (AstraZeneca / MedImmune, published 2020).
Where a chain is given by its changes, count along the chain named.

B1: Antibody 11 (antibody, V domains shown)
VH: QVQLQQSGPGLVKPSQTLSLTCAISGDSVSSYNAVWNWIRQSPSRGLEWLGRTYYRSGWYNDYAESVKSRITINPDTSKNQFSLQLNSVTPEDTAVYYCARSGHITVFGVNVDAFDMWGQGTMVTVSS
VL: DIQMTQSPSSLSASVGDRVTITCRTSQSLSSYTHWYQQKPGKAPKLLIYAASSRLSGVPSRFSGSGSGTDFTLTISSLQPEDFATYYCQQSRTFGQGTKVEIK
B2: Antibody 12 (antibody, V domains shown)
VH: B1 VH
VL: B1 VL with L55G
B3: Antibody 13 (antibody, V domains shown)
VH: B1 VH
VL: B1 VL with T33D
B4: Antibody 14 (antibody, V domains shown)
VH: B1 VH with Y32N, G58K, M123T
VL: B1 VL
B5: Antibody 15 (antibody, V domains shown)
VH: B1 VH with Y32N, G58K, M123T
VL: B1 VL with L55G

Target: HA of ca A/Brit. Columbia/CN-6/04 (H7N3-LP) virus (influenza A virus)
Assay: cell-based or functional assay

| Binder | Neutralization IC50, H7-BC04 [µg/mL] |
| --- | --- |
| B1 | 0.71 |
| B2 | 0.78 |
| B3 | 0.96 |
| B4 | 0.86 |
| B5 | 1.25 |

Target: HA of ca A/Anhui/1/13 (H7N9) virus (influenza A virus)
Assay: cell-based or functional assay

| Binder | Neutralization IC50, H7-ANU13 [µg/mL] |
| --- | --- |
| B2 | 2.56 |
| B4 | 2.12 |

Target: HA of ca A/Netherlands/219/03 (H7N7) virus (influenza A virus)
Assay: cell-based or functional assay

| Binder | Neutralization IC50, H7-NLD03 [µg/mL] |
| --- | --- |
| B1 | 0.94 |
| B2 | 0.83 |
| B3 | 2.45 |
| B4 | 1.16 |
| B5 | 1.3 |

Target: HA of ca A/Vietnam/1203/04 (H5N1) virus (influenza A virus)
Assay: cell-based or functional assay

| Binder | Neutralization IC50, H5-VM04 [µg/mL] |
| --- | --- |
| B1 | 0.57 |
| B2 | 0.31 |
| B3 | 0.56 |
| B4 | 0.33 |
| B5 | 0.28 |

Target: HA of ca A/mallard/Alberta/89/85 (H6N2) virus (influenza A virus)
Assay: cell-based or functional assay

| Binder | Neutralization IC50, H6-AB85 [µg/mL] |
| --- | --- |
| B1 | 0.24 |
| B2 | 0.32 |
| B3 | 0.29 |
| B4 | 0.26 |
| B5 | 0.19 |

Target: HA of ca A/teal/Hong Kong/W312/97 (H6N1) virus (influenza A virus)
Assay: cell-based or functional assay

| Binder | Neutralization IC50, H6-HK97 [µg/mL] |
| --- | --- |
| B1 | 0.4 |
| B2 | 0.45 |
| B3 | 0.55 |
| B4 | 0.26 |
| B5 | 0.33 |

Target: HA of ca A/swine/Missouri/06 (H2N3) virus (influenza A virus)
Assay: cell-based or functional assay

| Binder | Neutralization IC50, H2-MO06 [µg/mL] |
| --- | --- |
| B1 | 0.6 |
| B2 | 0.53 |
| B3 | 0.57 |
| B4 | 0.65 |
| B5 | 0.83 |

Target: HA of A/New Jersey/8/76 (H1N1) virus (influenza A virus)
Assay: cell-based or functional assay

| Binder | Neutralization IC50, H1-NJ76 [µg/mL] |
| --- | --- |
| B1 | 0.13 |
| B2 | 0.12 |
| B3 | 0.12 |
| B4 | 0.11 |
| B5 | 0.25 |

Target: HA of ca A/Japan/57 (H2N2) virus (influenza A virus)
Assay: cell-based or functional assay

| Binder | Neutralization IC50, H2-JP57 [µg/mL] |
| --- | --- |
| B1 | 0.31 |
| B2 | 0.35 |
| B3 | 0.47 |
| B4 | 0.67 |
| B5 | 0.33 |

Target: HA of ca A/chicken/Hong Kong/G9/97 (H9N2) virus (influenza A virus)
Assay: cell-based or functional assay

| Binder | Neutralization IC50, H9-HK97 [µg/mL] |
| --- | --- |
| B1 | 0.36 |
| B2 | 0.31 |
| B3 | 0.29 |
| B4 | 0.44 |
| B5 | 0.35 |

Target: HA of ca A/Hong Kong/213/03 (H5N1) virus (influenza A virus)
Assay: cell-based or functional assay

| Binder | Neutralization IC50, H5-HK03 [µg/mL] |
| --- | --- |
| B1 | 0.21 |
| B2 | 0.17 |
| B3 | 0.17 |
| B4 | 0.21 |
| B5 | 0.05 |

Target: HA subtype H4 (A/duck/Czechoslovakia/56 (H4N6)) on HEK cells (influenza A virus, UniProt P19696 17-564)
Assay: flow cytometry, HA-transfected HEK cells, 5 ug/ml antibody

| Binder | binding result |
| --- | --- |
| B2 | binds |

Target: HA subtype H13 (A/gull/Maryland/704/77 (H13N6)) on HEK cells (influenza A virus, UniProt P13103 19-566)
Assay: as above

| Binder | binding result |
| --- | --- |
| B2 | binds |

Target: HA subtype H12 (A/duck/Alberta/60/76 (H12N5)) on HEK cells (influenza A virus, UniProt P03446 17-564)
Assay: as above

| Binder | binding result |
| --- | --- |
| B2 | binds |

Target: HA subtype H14 (A/mallard/Astrakhan/263/82 (H14N5)) on HEK cells (influenza A virus, UniProt P26136 18-568)
Assay: as above

| Binder | binding result |
| --- | --- |
| B2 | binds |

Target: HA subtype H10 (A/chicken/Germany/N49 (H10N7)) on HEK cells (influenza A virus, UniProt P12581 17-561)
Assay: as above

| Binder | binding result |
| --- | --- |
| B2 | binds |
